According to PMC7644641 (Nature structural & molecular biology, 2020):

Biological target: RagA:RagC^D181N GTPase heterodimer (UniProt Q7L523 1-313; Q9HB90 1-399, D181N)
Test: SEC

Sequence of RagA:RagC^D181N GTPase heterodimer (Q7L523 whole entry, chain 1 of 2): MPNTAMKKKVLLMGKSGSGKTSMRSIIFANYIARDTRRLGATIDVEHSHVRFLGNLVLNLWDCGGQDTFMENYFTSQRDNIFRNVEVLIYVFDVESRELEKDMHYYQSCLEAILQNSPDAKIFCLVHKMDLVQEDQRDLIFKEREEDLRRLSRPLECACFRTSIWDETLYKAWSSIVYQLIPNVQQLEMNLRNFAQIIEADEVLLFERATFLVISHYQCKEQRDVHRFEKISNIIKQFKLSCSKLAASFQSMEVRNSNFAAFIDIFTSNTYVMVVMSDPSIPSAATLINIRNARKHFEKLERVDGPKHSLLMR
Sequence of RagA:RagC^D181N GTPase heterodimer (Q9HB90 whole entry D181N, chain 2 of 2): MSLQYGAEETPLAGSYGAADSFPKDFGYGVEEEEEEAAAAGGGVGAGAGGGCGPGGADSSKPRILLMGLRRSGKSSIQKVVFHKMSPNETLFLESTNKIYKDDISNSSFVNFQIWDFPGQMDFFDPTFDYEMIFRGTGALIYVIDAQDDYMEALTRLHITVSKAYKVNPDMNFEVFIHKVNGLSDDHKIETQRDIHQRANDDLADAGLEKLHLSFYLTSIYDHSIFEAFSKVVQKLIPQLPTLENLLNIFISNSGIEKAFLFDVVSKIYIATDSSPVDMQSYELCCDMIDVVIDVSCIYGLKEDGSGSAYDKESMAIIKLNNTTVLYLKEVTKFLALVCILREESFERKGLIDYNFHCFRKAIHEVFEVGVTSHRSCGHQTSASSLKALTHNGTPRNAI

B1: SLC38A9 N-terminal cytoplasmic tail (residues 1–119) (domain or fragment, human, UniProt Q8NBW4 1-119, looked up)
chain: MANMNSDSRHLGTSEVDHERDPGPMNIQFEPSDLRSKRPFCIEPTNIVNVNHVIQRVSDHASAMNKRIHYYSRLTTPADKALIAPDHVVPAPEECYVYSPLGSAYKLQSYTEGYGKNTS
  binding result: binds
